Results published in patent US20230358760, “APTAMERS THAT TARGET CXCL9” (RHEINISCHE FRIEDRICH-WILHELMS-UNIVERSITÄt BONN, published 2023).

Experiments:
CXCL11 (Homo sapiens) = biological target: T1, CXCL11 (Homo sapiens) (UniProt O14625); assay: ELONA; conditions: n=2
T1 sequence: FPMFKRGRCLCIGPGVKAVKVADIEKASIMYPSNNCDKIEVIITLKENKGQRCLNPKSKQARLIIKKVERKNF

[1] = biological target: T2, CXCL9 (MIG) (Homo sapiens) (UniProt Q07325); assay: ELONA; conditions: n=2
T2 sequence: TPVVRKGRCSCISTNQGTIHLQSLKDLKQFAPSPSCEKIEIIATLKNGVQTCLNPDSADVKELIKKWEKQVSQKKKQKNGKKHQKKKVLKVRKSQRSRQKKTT

CXCL11 = biological target: T3, CXCL11 (Homo sapiens, UniProt O14625 O14625:22-94); assay: ELONA; n=2; conditions: tags: Cell guidance system; label: 5' biotin or Cy5; G4
T3 sequence: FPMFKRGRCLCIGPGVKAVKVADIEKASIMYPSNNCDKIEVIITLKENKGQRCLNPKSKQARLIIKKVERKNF
Experimental: (§1) 20 μl of 1 μg/ml protein in bicarbonate/carbonate buffer pH 9.6 was coated overnight at 4° C. on 96 well half area plates (Greiner Bio). After washing three times with 100 μL WB1 (PBS+0.05% Tween 20), wells were blocked with 1% BSA in PBS for 2 h at RT with slight agitation. […] Wells were washed once with 100 μL WB2 (138 mM NaCl, 5 mM KCl, 1.5 mM KH₂PO₄, 8.1 mM Na₂HPO₄, 170 mM urea, 7 mM ammonium acetate, 1 mM MgCl₂, 1 mM CaCl₂), pH 6.5).
(§2) DNA was diluted to respective concentration in SB1 and 20 μL is transferred onto the wells in duplicates (protein and BSA wells). After incubation of 30 min at RT and slight agitation, the wells were washed two times with 100 μL WB1 and are incubated with 20 μL of streptavidin-horseradish peroxidase (SA-HRP) solution (1:1000 in PBS, GE Healtcare). After 30 min incubation at RT the wells were washed again twice with 100 μL WB1. Finally, the complex was incubated with 1-Step ABTS (ThermoFisher) for 15-40 min at RT, slight agitation. Absorbance at 405 nm was read out with a Tecan Nanoquant plate reader. Binding of DNA to BSA background was subtracted from binding of DNA to protein sample.

CCL3 = CCL3 (Homo sapiens, UniProt P10147 P10147:24-92); assay: ELONA; DNA at 2x KD; conditions: tags: Peprotech; label: 5' biotin or Cy5; G4
Experimental: as §1, §2
(§3) Binding of aptamers of SEQ ID NO: 4 (G123) and SEQ ID NO: 5 (I29) to different proteins was determined using ELONA. […] The pro-inflammatory chemokines CXCL9, CXCL10, CXCL11, and CXCL1 were used, as well as soluble interleukin-2 receptor (sCD25), C-reactive protein (CRP), C—C motif chemokine ligand 17 (CCL17), C—C motif chemokine ligand 22 (CCL22), C—C motif chemokine ligand 3(CCL3) and human serum albumin (HAS).

[2] = biological target: sCD25 (soluble interleukin-2 receptor) (Homo sapiens, UniProt P01589 P01589:22-240); assay: ELONA; DNA at 2x KD; conditions: tags: Antikorper online; label: 5' biotin or Cy5; G4
Experimental: as §1, §2, §3

CXCL10 = CXCL10 (Homo sapiens, UniProt P02778 P02778:22-98); assay: ELONA; DNA at 2x KD; conditions: tags: Cell guidance system; label: 5' biotin or Cy5; G4
Experimental: as §1, §2, §3

CXCL1 = CXCL1 (Homo sapiens, UniProt P09341 P09341:35-107); assay: ELONA; DNA at 2x KD; conditions: tags: Cell guidance system; label: 5' biotin or Cy5; G4
Experimental: as §1, §2, §3

CCL22 = biological target: T4, CCL22 (Homo sapiens, UniProt O00626 O00626:25-93); assay: ELONA; DNA at 2x KD; conditions: tags: BioLegend; label: 5' biotin or Cy5; G4
T4 sequence: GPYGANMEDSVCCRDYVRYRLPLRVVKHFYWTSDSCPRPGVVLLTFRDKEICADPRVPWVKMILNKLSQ
Experimental: as §1, §2, §3

[3] = biological target: HSA (human serum albumin) (Homo sapiens, UniProt P02768 P02768:25-609); assay: ELONA; DNA at 2x KD; conditions: tags: Sigma-Aldrich; label: 5' biotin or Cy5; G4
Experimental: as §1, §2, §3

CRP (C-reactive protein) = biological target: T5, CRP (C-reactive protein) (Homo sapiens, UniProt P02741 P02741:19-224); assay: ELONA; DNA at 2x KD; conditions: tags: BioRad; chain copies: 5; label: 5' biotin or Cy5; G4
T5 sequence: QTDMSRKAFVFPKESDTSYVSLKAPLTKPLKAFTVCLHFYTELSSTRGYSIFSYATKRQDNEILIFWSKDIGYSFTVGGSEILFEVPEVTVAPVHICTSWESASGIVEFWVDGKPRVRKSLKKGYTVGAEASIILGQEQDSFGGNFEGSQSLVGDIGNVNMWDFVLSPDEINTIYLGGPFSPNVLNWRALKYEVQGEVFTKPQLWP
Experimental: as §1, §2, §3

CCL17 = CCL17 (Homo sapiens, UniProt Q92583 Q92583:24-94); assay: ELONA; DNA at 2x KD; conditions: tags: BioLegend; label: 5' biotin or Cy5; G4
Experimental: as §1, §2, §3

CXCL9 (MIG) [4] = biological target: T6, CXCL9 (MIG) (Homo sapiens, UniProt Q07325 Q07325:23-125); assay: ELONA; n=2; conditions: tags: Origene; immobilised on magnetic beads for flow cytometry; label: 5' biotin or Cy5; G4
T6 sequence: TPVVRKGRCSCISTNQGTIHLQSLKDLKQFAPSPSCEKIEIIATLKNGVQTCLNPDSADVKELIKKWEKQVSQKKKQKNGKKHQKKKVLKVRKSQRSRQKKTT
Experimental: as §1
as §2, with “Binding of DNA to BSA background was subtracted from binding of DNA to protein sample.” left out
In parallel, the influence of indole (In) modification and azide without modification (E) on the affinity of aptamer SEQ ID NO: 4 (G123) was determined using ELONA and compared to the affinity of unmodified DNA (DNA). […] In the table, “+” represents successful binding, while “−” means no detection of binding, “n.d.” denotes not determined.

CXCL9 (MIG) [5] = biological target: T6, CXCL9 (MIG); assay: flow; scrambled non-binding control; conditions: tags: Origene; immobilised on magnetic beads for flow cytometry; label: 5' Cy5
Experimental: The binding of indole-modified aptamer of SEQ ID NO: 5 (I29 In), unmodified aptamer of SEQ ID NO: 6 (G123 DNA), and indole-modified aptamer of SEQ ID NO: 4 (G123 In) to pro-inflammatory chemokine CXCL9 was determined in competition assay. 100 nM Cy-5 labelled DNA was incubated simultaneous with 1 μM unlabelled DNA and thus competed for binding. After incubation the remaining Cy5 labelled DNA on CXCL9-magnetic beads was analysed with flow cytometry as described above. As control, Cy5-labeled DNA without competitor was analysed and was used to normalize data.
Binding of Cy5 labelled scrambled sequence is used as non-binding control. (n=2, mean±SD).

[6] = indole-clicked EdU at all N [31,45,49,53 (indole-clicked EdU)]
[7] = indole-clicked EdU at all N (28,44,47,49,50) [28,44,47,49,50 (indole-clicked EdU)]

Chain of CCL17 (Q92583 24-94, one chain of several): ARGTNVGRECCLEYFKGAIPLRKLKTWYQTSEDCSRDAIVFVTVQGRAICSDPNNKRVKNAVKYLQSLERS
Chain of sCD25 (soluble interleukin-2 receptor) (P01589 22-240, one chain of several): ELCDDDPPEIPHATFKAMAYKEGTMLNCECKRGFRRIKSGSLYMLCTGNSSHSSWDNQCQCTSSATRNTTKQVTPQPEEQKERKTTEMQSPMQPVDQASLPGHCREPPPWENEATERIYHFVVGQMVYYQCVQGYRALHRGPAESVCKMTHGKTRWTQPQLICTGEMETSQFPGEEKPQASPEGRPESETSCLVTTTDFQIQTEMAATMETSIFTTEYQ
Chain of HSA (human serum albumin) (P02768 25-609, one chain of several): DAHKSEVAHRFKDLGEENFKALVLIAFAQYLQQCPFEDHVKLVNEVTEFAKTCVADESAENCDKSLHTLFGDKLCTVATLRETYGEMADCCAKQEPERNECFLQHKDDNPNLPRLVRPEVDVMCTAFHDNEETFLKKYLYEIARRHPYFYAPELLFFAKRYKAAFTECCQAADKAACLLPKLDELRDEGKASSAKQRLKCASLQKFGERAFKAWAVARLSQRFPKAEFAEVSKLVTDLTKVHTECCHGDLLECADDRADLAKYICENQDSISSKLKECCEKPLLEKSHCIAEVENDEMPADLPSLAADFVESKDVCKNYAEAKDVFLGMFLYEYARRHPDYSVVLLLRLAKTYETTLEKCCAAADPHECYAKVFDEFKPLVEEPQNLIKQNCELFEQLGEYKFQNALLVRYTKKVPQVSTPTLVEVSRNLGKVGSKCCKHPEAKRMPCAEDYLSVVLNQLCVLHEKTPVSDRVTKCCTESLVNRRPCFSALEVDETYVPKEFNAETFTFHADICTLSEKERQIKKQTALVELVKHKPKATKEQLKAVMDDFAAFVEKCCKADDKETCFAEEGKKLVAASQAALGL
Chain of CCL3 (P10147 24-92, one chain of several): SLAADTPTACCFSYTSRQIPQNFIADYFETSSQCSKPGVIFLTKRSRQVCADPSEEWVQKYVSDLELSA
Chain of CXCL10 (P02778 22-98, one chain of several): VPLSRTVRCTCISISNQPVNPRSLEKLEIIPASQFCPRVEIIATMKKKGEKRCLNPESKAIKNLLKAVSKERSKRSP
Chain of CXCL1 (P09341 35-107, one chain of several): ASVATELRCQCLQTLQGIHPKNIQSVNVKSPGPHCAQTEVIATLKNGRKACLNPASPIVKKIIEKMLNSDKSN

“CACGACGCAAGGGACCACAGGGAGGGAGGGTGGGCAAAGGGCCCTAAGTCCGTAACAAAAACACAGCACGACACCGCAGAGGCA [G123 In]” was tested, and the Kd (CXCL11 (Homo sapiens); [6]) was 73 nM and the Kd [1, 6] was 39 nM.

With “CACGACGCAAGGGACCACAGGAGAGACTCACGGGCGGGCGACCTACTGTTCAGCCCAGACCGACAGCACGACACCGCAGAGGCA [I29 BnFu]” the Kd ([1]; benzofurane-clicked EdU at all N [28,44,47,49,50 (benzofurane-clicked EdU)]) was 17 nM.

“CACGACGCAAGGGACCACAGGAGAGACTCACGGGCGGGCGACCTACTGTTCAGCCCAGACCGACAGCACGACACCGCAGAGGCA [I29 In]” was tested, and the Kd (CXCL11 (Homo sapiens); [7]) was 17 nM and the Kd [1, 7] was 12 nM.

With “CACGACGCAAGGGACCACAGGAGAGACTCACGGGCGGGCGACCTACTGTTCAGCCCAGACCGACAGCACGACACCGCAGAGGCA [I29 Naph]” the Kd ([1]; naphthalene-clicked EdU at all N [28,44,47,49,50 (naphthalene-clicked EdU)]) was 21 nM.

Work on “CACGACGCAAGGGACCACAGGAGAGACTCACGGGCGGGCGACCTACTGTTCAGCCCAGACCGACAGCACGACACCGCAGAGGCA [I29 Phe]” yielded a Kd ([1]; phenol-clicked EdU at all N [28,44,47,49,50 (phenol-clicked EdU)]) of 177 nM.

B1: G123 DNA (ssDNA)
DNA: CACGACGCAAGGGACCACAGGGAGGGAGGGTGGGCAAAGGGCCCTAAGTCCGTAACAAAAACACAGCACGACACCGCAGAGGCA
With B1 the Kd (CXCL11) was 249 nM, the binding result (CCL3) was “no binding” and the binding result [2] was “no binding”. B1: no binding (CXCL10); no binding (CXCL1); no binding (CCL22). B1: no binding [3]; no binding (CRP (C-reactive protein)); no binding (CCL17). The Kd (CXCL9 (MIG) [4]) was 92 nM.

B2: G123.sc (ssDNA)
DNA: CACGACGCAAGGGACCACAGGAGGAGAGTAGGCGATACACGACGTAGCGCAGATAGGACCAAGCAGCACGACACCGCAGAGGCA
modifications: N = T or EdU [29,36,45,54 (T or EdU)]
B2: no binding (CXCL9 (MIG) [5]).
